Assay results taken from the supplement of paper PMC9112550, “Optimization of the antimicrobial peptide Bac7 by deep mutational scanning” (BMC Biology, 2022).

System: Escherichia coli TOP10
Assay: shrunken log2 fold change of peptide-encoding DNA abundance (4.5 h post-induction vs induction); higher = less antimicrobial activity (less host growth inhibition)
Conditions: time post-induction: 4.5 h; library: site-saturation at positions 5, 18, 19, 20
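Note: peptides expressed intracellularly from a pBAD plasmid library in pooled LB shake-flask culture, induced with 0.3% L-arabinose, DNA abundance read by NGS, three biological replicates, DESeq2 with apeglm shrinkage.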

| Sequence | shrunken log2 fold change |
| --- | --- |
| RRIRVRPPRLPRPRPRPAAYPRP | 0.00526 |
| RRIRVRPPRLPRPRPRPACHPRP | 0.0396 |
| RRIRVRPPRLPRPRPRPACIPRP | -0.0537 |
| RRIRVRPPRLPRPRPRPAFLPRP | 0.0548 |
| RRIRVRPPRLPRPRPRPAFMPRP | -0.352 |
| RRIRVRPPRLPRPRPRPAGIPRP | 0.165 |
| RRIRVRPPRLPRPRPRPAGRPRP | 1.22 |
| RRIRVRPPRLPRPRPRPAHTPRP | 0.109 |
| RRIRVRPPRLPRPRPRPALDPRP | 0.357 |
| RRIRVRPPRLPRPRPRPALMPRP | 0.193 |
| RRIRVRPPRLPRPRPRPALSPRP | 0.414 |
| RRIRVRPPRLPRPRPRPANAPRP | -0.0677 |
| RRIRVRPPRLPRPRPRPANLPRP | -0.163 |
| RRIRVRPPRLPRPRPRPANVPRP | -0.597 |
| RRIRVRPPRLPRPRPRPAQFPRP | 0.341 |
| RRIRVRPPRLPRPRPRPASMPRP | 0.0106 |
| RRIRVRPPRLPRPRPRPASYPRP | 0.0708 |
| RRIRVRPPRLPRPRPRPATFPRP | -0.387 |
| RRIRVRPPRLPRPRPRPAVVPRP | 0.213 |
| RRIRVRPPRLPRPRPRPAVYPRP | -0.161 |
| RRIRVRPPRLPRPRPRPAYHPRP | -0.316 |
| RRIRVRPPRLPRPRPRPAYQPRP | -0.264 |
| RRIRVRPPRLPRPRPRPCACPRP | 0.0537 |
| RRIRVRPPRLPRPRPRPCFHPRP | -0.395 |
| RRIRVRPPRLPRPRPRPCFVPRP | -0.253 |

| Sequence | shrunken log2 fold change |
| --- | --- |
| RRIRVRPPRLPRPRPRPCGGPRP | -0.0341 |
| RRIRVRPPRLPRPRPRPCHIPRP | -0.312 |
| RRIRVRPPRLPRPRPRPCHNPRP | -0.362 |
| RRIRVRPPRLPRPRPRPCHTPRP | -0.0202 |
| RRIRVRPPRLPRPRPRPCIWPRP | 0.0495 |
| RRIRVRPPRLPRPRPRPCLFPRP | -0.592 |
| RRIRVRPPRLPRPRPRPCNKPRP | -0.311 |
| RRIRVRPPRLPRPRPRPCQGPRP | -0.226 |
| RRIRVRPPRLPRPRPRPCQQPRP | 0.00938 |
| RRIRVRPPRLPRPRPRPCSRPRP | -0.0712 |
| RRIRVRPPRLPRPRPRPCTAPRP | 0.172 |
| RRIRVRPPRLPRPRPRPCTCPRP | -0.00748 |
| RRIRVRPPRLPRPRPRPCTDPRP | -0.46 |
| RRIRVRPPRLPRPRPRPCTFPRP | -0.0858 |
| RRIRVRPPRLPRPRPRPCTTPRP | 0.167 |
| RRIRVRPPRLPRPRPRPCVMPRP | -0.0841 |
| RRIRVRPPRLPRPRPRPCVRPRP | 0.0421 |
| RRIRVRPPRLPRPRPRPCVYPRP | -0.136 |
| RRIRVRPPRLPRPRPRPCWFPRP | -0.106 |
| RRIRVRPPRLPRPRPRPCYHPRP | -0.00421 |
| RRIRVRPPRLPRPRPRPDDHPRP | -0.106 |
| RRIRVRPPRLPRPRPRPDDMPRP | -0.239 |
| RRIRVRPPRLPRPRPRPDDTPRP | -0.00824 |
| RRIRVRPPRLPRPRPRPDDWPRP | -0.198 |
| RRIRVRPPRLPRPRPRPDEMPRP | 0.0261 |

| Sequence | shrunken log2 fold change |
| --- | --- |
| RRIRVRPPRLPRPRPRPDFNPRP | -0.344 |
| RRIRVRPPRLPRPRPRPDHGPRP | -0.0218 |
| RRIRVRPPRLPRPRPRPDHMPRP | -0.384 |
| RRIRVRPPRLPRPRPRPDLLPRP | -0.224 |
| RRIRVRPPRLPRPRPRPDQCPRP | 0.0862 |
| RRIRVRPPRLPRPRPRPDRKPRP | 0.0279 |
| RRIRVRPPRLPRPRPRPDRRPRP | 0.206 |
| RRIRVRPPRLPRPRPRPDSCPRP | -0.115 |
| RRIRVRPPRLPRPRPRPDSHPRP | -0.111 |
| RRIRVRPPRLPRPRPRPDSIPRP | -0.149 |
| RRIRVRPPRLPRPRPRPDSNPRP | -0.159 |
| RRIRVRPPRLPRPRPRPDTQPRP | 0.0912 |
| RRIRVRPPRLPRPRPRPDYDPRP | 0.00442 |
| RRIRVRPPRLPRPRPRPDYFPRP | -0.163 |
| RRIRVRPPRLPRPRPRPEDPPRP | 0.476 |
| RRIRVRPPRLPRPRPRPEDTPRP | 0.106 |
| RRIRVRPPRLPRPRPRPEFHPRP | -0.489 |
| RRIRVRPPRLPRPRPRPEGRPRP | 0.0493 |
| RRIRVRPPRLPRPRPRPEHRPRP | -0.0452 |
| RRIRVRPPRLPRPRPRPEHYPRP | 0.0358 |
| RRIRVRPPRLPRPRPRPEKSPRP | 0.0304 |
| RRIRVRPPRLPRPRPRPELYPRP | 0.0948 |
| RRIRVRPPRLPRPRPRPEMNPRP | -0.16 |
| RRIRVRPPRLPRPRPRPEMSPRP | 0.0206 |
| RRIRVRPPRLPRPRPRPEMTPRP | 0.0232 |
